T1: Rhesus GIPR (rhesus, UniProt F7E1R9 22-466)
T1 sequence: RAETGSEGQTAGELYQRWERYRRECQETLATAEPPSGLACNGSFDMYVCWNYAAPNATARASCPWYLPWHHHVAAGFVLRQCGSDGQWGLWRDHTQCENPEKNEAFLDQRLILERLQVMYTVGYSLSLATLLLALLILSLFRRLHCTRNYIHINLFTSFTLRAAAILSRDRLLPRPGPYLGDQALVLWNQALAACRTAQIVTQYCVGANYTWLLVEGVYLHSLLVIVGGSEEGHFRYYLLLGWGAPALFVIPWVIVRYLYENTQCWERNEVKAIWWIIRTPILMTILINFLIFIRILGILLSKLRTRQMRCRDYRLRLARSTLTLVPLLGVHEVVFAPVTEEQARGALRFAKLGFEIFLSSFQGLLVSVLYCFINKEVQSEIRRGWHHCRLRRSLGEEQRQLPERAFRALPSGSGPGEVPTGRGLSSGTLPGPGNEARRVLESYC


Molecular target: T1, Rhesus GIPR
Experiment: cell-based or functional assay

Row | Rhesus GIPR CAMP Assay (Conc. mAb @ 60% Inhibition in nM) | Binder
1 | 1.88 nM | 18F2.012 (antibody, human IgG1, kappa, N297G, V domains shown) VH: not shown VL: DIQMTQSPSSLSASIGDRVTITCRASQDLRNYLGWYQQKPGKAPKLLIYGASSLQSGVPSRFSGSGSGTEFTLTISSLQPEDFATYYCLQHNNYPFTFGPGTKVDIKR
2 | 0.84 nM | 4B1.015 (antibody, human IgG1, kappa, N297G, V domains shown) VH: not shown VL: DIQMTQSPSSLSASIGDRVTITCRASQDIRDYLGWYQQKPGKAPKLLIYGASSLQSGVPSRFSGSGSGTEFTLTISSLQPEDFATYYCLQHNNYPFTFGQGTKVDIKR
3 | 0.43 nM | 4H9.004.001 (antibody, human IgG1, kappa, N297G) heavy: not shown light: DIQMTQSPSSLSASVGDRVTITCRASQGIRNELGWYQQKPGKAPKLLIYGASSLQSGVPSRFSGSGSGTEFTLTISSLQPEDFVTYYCLQHNSYPFTFGQGTKVDVKRTVAAPSVFIFPPSDEQLKSGTASVVCLLNNFYPREAKVQWKVDNALQSGNSQESVTEQDSKDSTYSLSSTLTLSKADYEKHKVYACEVTHQGLSSPVTKSFNRGEC
4 | 0.55 nM | 6H1.007 (antibody, human IgG1, kappa, N297G, V domains shown) VH: QVQLVESGGGVVQPGRSLRLSCAASGFTFSYFGMHWVRQAPGKGLEWVAVIWYDASNKYYADSVKGRFTISRDNSKNTLYLQMNSLRAEDTAVYYCARDGTIFGVLLGDYWGQGTLVTVSS VL: DIQMTQSPSSLSASIGDRVTITCRASQDIRDYLGWYQQKPGKAPKLLIYGASSLQSGVPSRFSGSGSGTEFTLTISSLQPEDFATYYCLQHNNYPFTFGPGTKVDIKR
5 | 0.15 nM | 6H1.009 (antibody, human IgG1, kappa, N297G) heavy: not shown light: DIQMTQSPSSLSASIGDRVTITCRASQDIRDYLGWYQQKPGKAPKRLIYGASSLQSGVPSRFSGSGSGTEFTLTISSLQPEDFATYYCLQHNNYPFTFGQGTKVDIKRTVAAPSVFIFPPSDEQLKSGTASVVCLLNNFYPREAKVQWKVDNALQSGNSQESVTEQDSKDSTYSLSSTLTLSKADYEKHKVYACEVTHQGLSSPVTKSFNRGEC
6 | 1.57 nM | 4B1.016 (antibody, human IgG1, kappa, N297G, V domains shown) VH: not shown VL: DIQMTQSPSSLSASIGDRVTITCRASQDIRDYLGWYQQKPGKAPKLLIYGASSLQSGVPSRFSGSGSGTEFTLTISSLQPEDFATYYCLQHNNYPFTFGQGTKVDIKR
7 | 0.8 nM | 18F2 (antibody, human IgG1, kappa, N297G, V domains shown) VH: QVQLVESGGGVVQPGRSLRLSCAASGFTFSNFGMHWVRQAPGKGLEWVAVIWYDGSNENYADSVKGRFTISRDNSKNTLYLHMNSLRAADTAVYYCARDGTIFGVVLGDYWGQGTLVTVSS VL: DIQMTQSPSSLSASIGDRVTITCRASQDLRNYLGWYHQKPGKAPKRLIYGASSLQSGVPSRFSGSGSGTEFTLTISSLQPEDFATYYCLQHNNYPFTFGPGTKVDIKR
8 | 0.67 nM | 4B1 (antibody, human IgG1, kappa, N297G, V domains shown) VH: QVQLVESGGGVVQPGRSLRLSCAASGFTFSNFGMHWVRQAPGKGLEWVAVIWYDGSNENYADSVKGRFTISRDNSKNTLYLHMNSLRVADTAVYYCARDGTIFGVVLGDYWGQGTLVTVSS VL: DIQMTQSPSSLSASIGDRVTITCRASQDIRDYLGWYQQKPGKAPKRLIYGASSLQSGVPSRFSGSGSGTEFTLTISSLQPEDFATYYCLQHNNYPFTFGPGTKVDIKR
9 | 2.23 nM | 18F2.002 (antibody, human IgG1, kappa, N297G, V domains shown) VH: not shown VL: DIQMTQSPSSLSASIGDRVTITCRASQDLRNYLGWYQQKPGKAPKLLIYGASSLQSGVPSRFSGSGSGTEFTLTISSLQPEDFATYYCLQHNNYPFTFGPGTKVDIKR
10 | 0.49 nM | 6H1.005 (antibody, human IgG1, kappa, N297G, V domains shown) VH: not shown VL: DIQMTQSPSSLSASIGDRVTITCRASQDIRDYLGWYQQKPGKAPKLLIYGASSLQSGVPSRFSGSGSGTEFTLTISSLQPEDFATYYCLQHNNYPFTFGQGTKVDIKR
11 | 1.13 nM | 18F2.005 (antibody, human IgG1, kappa, N297G, V domains shown) VH: not shown VL: DIQMTQSPSSLSASIGDRVTITCRASQDLRNYLGWYQQKPGKAPKRLIYGASSLQSGVPSRFSGSGSGTEFTLTISSLQPEDFATYYCLQHNNYPFTFGPGTKVDIKR
12 | 1.35 nM | 4B1.013 (antibody, human IgG1, kappa, N297G, V domains shown) VH: QVQLVESGGGVVQPGRSLRLSCAASGFTFSNFGMHWVRQAPGKGLEWVAVIWYDASNENYADSVKGRFTISRDNSKNTLYLHMNSLRVADTAVYYCARDGTIFGVVLGDYWGQGTLVTVSS VL: DIQMTQSPSSLSASIGDRVTITCRASQDIRDYLGWYQQKPGKAPKLLIYGASSLQSGVPSRFSGSGSGTEFTLTISSLQPEDFATYYCLQHNNYPFTFGQGTKVDIKR
13 | 1.28 nM | 18F2.009 (antibody, human IgG1, kappa, N297G, V domains shown) VH: not shown VL: DIQMTQSPSSLSASIGDRVTITCRASQDLRNYLGWYQQKPGKAPKLLIYGASSLQSGVPSRFSGSGSGTEFTLTISSLQPEDFATYYCLQHNNYPFTFGPGTKVDIKR
14 | 0.79 nM | 6H1.004 (antibody, human IgG1, kappa, N297G, V domains shown, also called iPS:359873; iPS:359875) VH: not shown VL: DIQMTQSPSSLSASIGDRVTITCRASQDIRDYLGWYQQKPGKAPKLLIYGASSLQSGVPSRFSGSGSGTEFTLTISSLQPEDFATYYCLQHNNYPFTFGQGTKVDIKR
15 | 0.51 nM | 4B1.011 (antibody, human IgG1, kappa, N297G, V domains shown) VH: not shown VL: DIQMTQSPSSLSASIGDRVTITCRASQDIRDYLGWYQQKPGKAPKRLIYGASSLQSGVPSRFSGSGSGTEFTLTISSLQPEDFATYYCLQHNNYPFTFGQGTKVDIKR
16 | 0.44 nM | 6H1.008 (antibody, human IgG1, kappa, N297G, V domains shown) VH: not shown VL: DIQMTQSPSSLSASIGDRVTITCRASQDIRDYLGWYQQKPGKAPKLLIYGASSLQSGVPSRFSGSGSGTEFTLTISSLQPEDFATYYCLQHNNYPFTFGPGTKVDIKR
17 | 0.95 nM | 4B1.014 (antibody, human IgG1, kappa, N297G, V domains shown) VH: QVQLVESGGGVVQPGRSLRLSCAASGFTFSNFGMHWVRQAPGKGLEWVAVIWYDGSNENYADAVKGRFTISRDNSKNTLYLHMNSLRVADTAVYYCARDGTIFGVVLGDYWGQGTLVTVSS VL: DIQMTQSPSSLSASIGDRVTITCRASQDIRDYLGWYQQKPGKAPKLLIYGASSLQSGVPSRFSGSGSGTEFTLTISSLQPEDFATYYCLQHNNYPFTFGQGTKVDIKR
18 | 2.72 nM | 18F2.004 (antibody, human IgG1, kappa, N297G, V domains shown) VH: not shown VL: DIQMTQSPSSLSASIGDRVTITCRASQDLRNYLGWYHQKPGKAPKLLIYGASSLQSGVPSRFSGSGSGTEFTLTISSLQPEDFATYYCLQHNNYPFTFGPGTKVDIKR
19 | 0.44 nM | 4H9.004.004 (antibody, human IgG1, kappa, N297G) heavy: not shown light: DIQMTQSPSSLSASVGDRVTITCRASQGIRNELGWYQQKPGKAPKLLIYGASSLQSGVPSRFSGSGSGTEFTLTISSLQPEDFVTYYCLQHNSYPFTFGPGTKVDVKRTVAAPSVFIFPPSDEQLKSGTASVVCLLNNFYPREAKVQWKVDNALQSGNSQESVTEQDSKDSTYSLSSTLTLSKADYEKHKVYACEVTHQGLSSPVTKSFNRGEC
20 | 1.94 nM | 18F2.007 (antibody, human IgG1, kappa, N297G, V domains shown) VH: QVQLVESGGGVVQPGRSLRLSCAASGFTFSNFGMHWVRQAPGKGLEWVAVIWYDASNENYADAVKGRFTISRDNSKNTLYLHMNSLRAADTAVYYCARDGTIFGVVLGDYWGQGTLVTVSS VL: DIQMTQSPSSLSASIGDRVTITCRASQDLRNYLGWYHQKPGKAPKLLIYGASSLQSGVPSRFSGSGSGTEFTLTISSLQPEDFATYYCLQHNNYPFTFGPGTKVDIKR
21 | 1.76 nM | 18F2.008 (antibody, human IgG1, kappa, N297G, V domains shown) VH: not shown VL: DIQMTQSPSSLSASIGDRVTITCRASQDLRNYLGWYHQKPGKAPKRLIYGASSLQSGVPSRFSGSGSGTEFTLTISSLQPEDFATYYCLQHNNYPFTFGPGTKVDIKR
22 | 0.31 nM | 6H1.002 (antibody, human IgG1, kappa, N297G, V domains shown) VH: not shown VL: DIQMTQSPSSLSASIGDRVTITCRASQDIRDYLGWYQQKPGKAPKRLIYGASSLQSGVPSRFSGSGSGTEFTLTISSLQPEDFATYYCLQHNNYPFTFGPGTKVDIKR
23 | 0.52 nM | 18F2.006 (antibody, human IgG1, kappa, N297G, V domains shown) VH: QVQLVESGGGVVQPGRSLRLSCAASGFTFSNFGMHWVRQAPGKGLEWVAVIWYDASNENYADAVKGRFTISRDNSKNTLYLHMNSLRAADTAVYYCARDGTIFGVVLGDYWGQGTLVTVSS VL: DIQMTQSPSSLSASIGDRVTITCRASQDLRNYLGWYQQKPGKAPKRLIYGASSLQSGVPSRFSGSGSGTEFTLTISSLQPEDFATYYCLQHNNYPFTFGPGTKVDIKR
24 | 2.01 nM | 18F2.003 (antibody, human IgG1, kappa, N297G, V domains shown) VH: QVQLVESGGGVVQPGRSLRLSCAASGFTFSNFGMHWVRQAPGKGLEWVAVIWYDASNENYADAVKGRFTISRDNSKNTLYLHMNSLRAADTAVYYCARDGTIFGVVLGDYWGQGTLVTVSS VL: DIQMTQSPSSLSASIGDRVTITCRASQDLRNYLGWYQQKPGKAPKLLIYGASSLQSGVPSRFSGSGSGTEFTLTISSLQPEDFATYYCLQHNNYPFTFGPGTKVDIKR
25 | 0.47 nM | 6H1.006 (antibody, human IgG1, kappa, N297G, V domains shown) VH: QVQLVESGGGVVQPGRSLRLSCAASGFTFSYFGMHWVRQAPGKGLEWVAVIWYDGSNKYYADSVKGRFTISRDNSKNTLYLQMNSLRAEDTAVYYCARDGTIFGVLLGDYWGQGTLVTVSS VL: DIQMTQSPSSLSASIGDRVTITCRASQDIRDYLGWYQQKPGKAPKLLIYGASSLQSGVPSRFSGSGSGTEFTLTISSLQPEDFATYYCLQHNNYPFTFGPGTKVDIKR
